Experimental data published in article PMC4738263 (Scientific Reports, 2016).

B1: His-tag-attached wild-type Hydrogenobacter thermophilus cytochrome c552, holo protein [modified: heme c attached (holo protein); heme c attached (holo protein)] [Hydrogenobacter thermophilus] / itself (parent)
chain: NEQLAKQKGCMACHDLKAKKVGPAYADVAKKYAGRKDAVDYLAGKIKKGGSGVWGSVPMPPQNVTDAEAKQLAQWILSIK

Variants of: B1
Experiment: Ni affinity chromatography (peak areas)
Conditions: with itself, protein obtained from E. coli cells, read off a plot

NEQLFKQKGCVACHDLKAKKVGPAYADVAKKYAGRKDAVDYLAGKIKKGGSGVWGSVPMPPQNVTDAEAKQLAQWILSIK [chain 1 A5F M11V]
screen value (parent: 27): 14% | screen value (parent: 68): 83% | screen value: 3%

NEQLAKQKGCMACHDLKAKKVGPAYADVAKKYAGRKDAVDYLAGKIKKGGSGVWGSVPMPPQNVTDAEAKQLAQWVLSIK [chain 1 I76V]
screen value (parent: 27): 19% | screen value (parent: 68): 75% | screen value: 5.5%

NEQLAKQKGCMACHDLKAKKVGPAYADVAKKFAGRKDAVDELAGKIKKGGSGVWGSVPMPPQNVTDAEAKQLAQWILSIK [chain 1 Y32F Y41E]
screen value (parent: 27): 11% | screen value (parent: 68): 76% | screen value: 13%

NEQLFKQKGCVACHDLKAKKVGPAYADVAKKFAGRKDAVDELAGKIKKGGSGVWGSVPMPPQNVTDAEAKQLAQWVLSIK [chain 1 A5F M11V Y32F Y41E I76V]
screen value (parent: 27): 1.8% | screen value (parent: 68): 92% | screen value: 6.2%
